Values quoted from earlier work in publication PMC5519506 (Molecular pharmaceutics, 2016).
Read-outs that look alike come from different tables or passages of the source.

Legend:
[1] = fibronectin; ref [28]; cited from earlier work
EGFR^high tumor = conditions: ref [28], cited from earlier work; for tumor:muscle ratio / tumor:blood ratio: fibronectin

## fibronectin
[1]
  clearance half-time: 2.1 ± 0.3 min
EGFR^high tumor; 1 h, second of two values
  tumor accumulation: 2.4 ± 1.0 %ID/g
EGFR^high tumor; 1 h
  tumor accumulation: 3.4 ± 1.0 %ID/g
  tumor:blood ratio: 8.9 ± 4.7
EGFR^high tumor; 1 h, PET
  tumor:muscle ratio: 8.6 ± 3.0
EGFR^high tumor; 1 h, excised tissue
  tumor:muscle ratio: 10 ± 4
EGFR^high tumor; 4 h, excised tissue
  tumor:muscle ratio: 4.2 ± 1.3
EGFR^high tumor; 4 h
  tumor:blood ratio: 6.4 ± 4.3
